# In paper PMC9241813, “SGK1, a Serine/Threonine Kinase, Inhibits Prototype Foamy Virus Replication” (Microbiology Spectrum, 2022):
# Molecular target: the molecule itself
# Test: cross-linking; HEK293T cells transfected with Flag-Tas and empty vector or HA-SGK1; lysate supernatant incubated with cross-linking buffer at room temperature for 30 min; Western blot
protein,measurement,value
"prototype foamy virus Tas protein (Flag-Tas) (natural protein, also called PFV Tas; Myc-Tas; source: HEK293T, transfected, in lysate) MDSYEKEESVASTSGIQDLQTLSELVGPENAGEGELTIAEEPEENPRRPRRYTKREVKCVSYHAYKEIEDKHPQHIKLQDWIPTPEEMSKSLCKRLILCGLYSAEKASEILRMPFTVSWEQSDTDPDCFIVSYTCIFCDAVIHDPMPIRWDPEVGIWVKYKPLRGIVGSAVFIMHKHQRNCSLVKPSTSCSEGPKPRPRHDPVLRCDMFEKHHKPRQKRPRRRSIDNESCASSSDTMANEPGSLCTNPLWNPGPLLSGLLEESSNLPNLEVHMSGGPFWEEVYGDSILGPPSGSGEHSVL",stoichiometry N,2
